Test results published in PMC9739478.

Target: human von Willebrand factor (vWF) (human) (UniProt P04275)

- platelet adherence to vWF-coated surface (LDH assay, normalised to PRP only = 100%) in the presence of GPIb-NPs, 1 mg/mL: 72%
- platelet adherence to vWF-coated surface (LDH assay, normalised to PRP only = 100%) in the presence of dual-NPs (GPIbα and anti-CD34 HuscFv on one NP), 1 mg/mL: 76%
- platelet adherence to vWF-coated surface (LDH assay, normalised to PRP only = 100%) in the presence of free GPIb: 86%
Substance: glycoprotein Ib alpha chain (GPIbα) (from UniProt P07359 17-652) (receptor)
